Values quoted from earlier work in publication PMC9739371, “Deciphering the Binding of the Nuclear Localization Sequence of Myc Protein to the Nuclear Carrier Importin α3” (International Journal of Molecular Sciences, 2022).

Target: NLS-Myc (GFP fusion) NLS (Homo sapiens) (UniProt P01106)
Sequence (P01106 whole entry, looked up, the tested form may be a part): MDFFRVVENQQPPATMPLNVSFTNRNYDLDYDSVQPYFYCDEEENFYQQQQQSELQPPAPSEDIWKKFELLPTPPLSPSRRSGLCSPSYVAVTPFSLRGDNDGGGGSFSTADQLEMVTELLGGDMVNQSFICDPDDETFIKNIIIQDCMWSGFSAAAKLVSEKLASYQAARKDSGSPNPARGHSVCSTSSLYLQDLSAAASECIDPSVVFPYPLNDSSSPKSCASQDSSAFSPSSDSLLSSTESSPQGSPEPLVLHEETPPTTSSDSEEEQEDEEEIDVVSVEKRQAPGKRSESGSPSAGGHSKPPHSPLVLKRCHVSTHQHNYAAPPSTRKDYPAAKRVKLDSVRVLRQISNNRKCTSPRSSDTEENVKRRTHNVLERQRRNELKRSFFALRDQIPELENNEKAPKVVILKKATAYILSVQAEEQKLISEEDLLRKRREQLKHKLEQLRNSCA

yeast ΔImpα ΔIBB, sequence (Q02821 1-68, stated change not applied): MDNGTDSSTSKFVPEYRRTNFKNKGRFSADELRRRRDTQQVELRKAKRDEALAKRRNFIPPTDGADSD

Kd: 6 nM
Substance: yeast ΔImpα ΔIBB (from UniProt Q02821)
